Consider 14 molecules from patent US20250340637A1 (ABPRO, published 2025).

Test [1] concerns the target T1, HuCD3E (Homo sapiens, UniProt P07766 23-126, limits assumed).
T1 construct: Recombinant analyte in SPR and antigen in ELISA; also called human CD3; human CD3 epsilon
Put plainly: SPR, Biacore 8K; CD3 Affinity column: Low. A general note: SPR reads the build-up and loss of mass on a sensor chip optically.

The target in test [2] is T2, CynoCD3E (cyno, UniProt Q95LI5 22-117, limits assumed).
T2 construct: Recombinant analyte in SPR and antigen in ELISA; The construct is not described; also called cynomolgus CD3 epsilon
T2 sequence (looked up): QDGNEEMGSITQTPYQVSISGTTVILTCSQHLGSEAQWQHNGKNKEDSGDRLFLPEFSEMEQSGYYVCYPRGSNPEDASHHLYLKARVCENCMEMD
Put plainly: SPR, Biacore 8K; antibody captured, CD3E as analyte; sample after 24 h at 42° C. The protocol: (§1) Initially, the affinity measurement of the anti-CD3 clones were determined using a Surface Plasmon Resonance (SPR) biosensor, Biacore 8K (GE Healthcare). The equilibrium dissociation constant (KD) was calculated from the ratio of kd over ka. To determine the contribution of a specific residue to antibody affinity and expression, paratope mapping was performed by screening of NNK libraries. In brief, the VH and VL of the parental antibody were searched by using NCBI Ig-Blast (www.ncbi.nlm.nih.gov/projects/igblast/) and CDRs were defined by the KABAT delineation system. All residues within CDRs were defined and mutated by NNK method. Each individual NNK library was generated per residue based on the FASEBA platform with a theoretical diversity at 20. The DNA encoding both heavy chain and light chain were inserted into a mammalian expression vector, transfected into CHO-S cells, and stable clones of highest expression were selected. Supernatants were collected from shaker flasks and purified on protein A affinity chromatography.
(§2) Thermal stability. […] After incubation, the supernatant was centrifuged at 4500 rpm, and undissolved substances was discarded. Heat-treated, purified full-length bispecific antibodies were re-evaluated for their concentrations, and affinity ranking of samples with thermal treatment to human and cyno CD3 was conducted.
(§3) Affinity ranking. Binding between the parental and affinity-tuned bispecific antibodies and human and cyno target proteins (HER2 and CD3) was validated by ELISA, and a Biacore 8K was used to study the kinetics of the interaction between the antigen and the bispecific antibodies.

In test [3] the target is T1, HuCD3E. Described as above. The procedure: as §1, §2, §3
For test [4], the target named is T2, CynoCD3E. Put plainly: SPR, Biacore 8K; antibody captured, CD3E as analyte. The procedure:
as §1, §3

Test [5] deals with T1, HuCD3E. Described as above. The procedure: as §1, §3
Test [6] addresses T1, HuCD3E. As to the kind of experiment: SPR, Biacore 8K; CD3 Affinity column: Med; lower end of the range.
Test [7] addresses T1, HuCD3E. Put plainly: SPR, Biacore 8K; CD3 Affinity column: Med; upper end of the range.
Test [8] addresses T1, HuCD3E. As to the kind of experiment: SPR, Biacore 8K; CD3 Affinity column: Low. The protocol: as §1, §3
This is another data set of the same source.

Test [9] addresses T1, HuCD3E. As to the kind of experiment: SPR, Biacore 8K; CD3 Affinity column: Hi.

Bounds are passed on as bounds.

T1 sequence (P07766 23-126 limits assumed): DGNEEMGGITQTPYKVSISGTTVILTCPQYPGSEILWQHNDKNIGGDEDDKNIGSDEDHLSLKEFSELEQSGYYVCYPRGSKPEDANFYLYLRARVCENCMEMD

B1: 32G4-V8-v5.5 (antibody, V domains shown)
VH: EVQLVESGGGLVQPGGSLKLSCAASGFTFNTYAMNWVRQAPGKGLEWVARIRSKYNNYATYYADSVKDRFTISRDDSKNTAYLQMNSLKTEDTAVYYCVRHGNFGNSYVSWFMYWGQGTLVTVSS
VL: QTVVTQEPSLTVSPGGTVTLTCRSSTGAVTTSNYANWVQQKPGQAFRGLIGGTNKRAPGVPARFSGSLLGGKAALTLSGVQPEDEAIYFCALWYSNLWVFGGGTKLTVL
Take B1: the Kd with HuCD3E [1] was over 100 nM.

B2: VH3 (SEQ ID NO: 18) + VL6 (SEQ ID NO: 19) (antibody, V domains shown)
VH: EVQLVESGGGLVQPGGSLKLSCAASGFTFNTYAMNWVRQAPGKGLEWVARIRSKYNNYATYYADSVKDRFTISRDDSKNTAYLQMNSLKTEDTAVYYCVRHGNFGNSYVSWFAYWGQGTLVTVSS
VL: QTVVTQEPSLTVSPGGTVTLTCRSSTGAVTTSNYANWVQQKPGQAFRGLIGGTNKRAPGVPARFSGSLLGGKAALTLSGVQPEDEAIYFCALWYSNLWVFGGGTKLEIK
notes: Humanized SP34 anti-CD3 variant; The sample heated at 42° C. is the same molecule and is marked under assay; also called VH3 + VL6
As for B2, the Kd with CynoCD3E [2] was determined as 1.36 nM; with HuCD3E [3], 1.38 nM; with CynoCD3E [4], 1.71 nM; in the test with HuCD3E [5] it was 1.25 nM. Moreover, the koff in the test with CynoCD3E [2] came out at 0.000489 s⁻¹; with HuCD3E [3], 0.000343 s⁻¹; in the test with CynoCD3E [4], 0.000469 s⁻¹; with HuCD3E [5] it was 0.000286 s⁻¹. The kon with CynoCD3E [2] was found to be 359000 M⁻¹ s⁻¹; in the test with HuCD3E [3], 249000 M⁻¹ s⁻¹; with CynoCD3E [4], 274000 M⁻¹ s⁻¹; with HuCD3E [5] it was 229000 M⁻¹ s⁻¹.

B3: ABP100s.10.0.3 (antibody, V domains shown)
VH: EVQLVESGGGLVQPGGSLKLSCAASGFTFNTYAMNWVRQAPGKCLEWVARIRSKYNNYATYYADKVKDRFTISRDDSKNTAYLQMNSLKTEDTAVYYCVRHGNFGNSYVSWFAYWGQGTLVTVSS
VL: QTVVTQEPSLTVSPGGTVTLTCRSSTGAVTTSNYANWVQQKPGQAFRGLIGGTNKRAPGVPARFSGSLLGGKAALTLSGVQPEDEAIYFCALWYSNLWVFGCGTKLTVL
Consider B3, for which the Kd is at least 10 nM with HuCD3E [6] and at most 100 nM in the test with HuCD3E [7].

B4: ABP100s.10.5.6 (antibody, V domains shown)
VH: EVQLVESGGGLVQPGGSLKLSCAASGFTFNTYAMNWVRQAPGKCLEWVARIRSKYNNYATYYADSVKDRFTISRDDSKNTAYLQMNSLKTEDTAVYYCVRHGNFGNSYVSWFAYWGQGTLVTVSS
VL: QTVVTQEPSLTVSPGGTVTLTCRSSTGAVTTSNYANWVQQKPGQAFRGLIGGTNKRAPGVPARFSGSLLGGKAALTLSGVQPEDEAIYFCMLWYSNLWVFGCGTKLTVL
Molecule B4 registered a Kd with HuCD3E [8] of over 100 nM.

B5: ABP100s.10.6 (antibody, V domains shown)
VH: EVQLVESGGGLVQPGGSLKLSCAASGFTFNTYAMNWVRQAPGKCLEWVARIRSKYNNYATYYADSVKDRFTISRDDSKNTAYLQMNSLKTEDTAVYYCVRHGNFGNSYVSWFAYWGQGTLVTVSS
VL: QTVVTQEPSLTVSPGGTVTLTCRSSTGAVTTSNYANWVQQKPGQAFRGLIGGTNKRAPGVPARFSGSLLGGKAALTLSGVQPEDEAIYFCALWYSNLWVFGCGTKLTVL
In turn, B5 displayed a Kd with HuCD3E [9] of under 10 nM.

B6: ABP100s.10.0.1 (antibody, V domains shown)
VH: EVQLVESGGGLVQPGGSLKLSCAASGFTFNTYAMNWVRQAPGKCLEWVARIRSKYNNYATYYADSVKDRFTISRDDSKNTAYLQMNSLKTEDTAVYYCVRHGNFGNSYVSWFGYWGQGTLVTVSS
VL: QTVVTQEPSLTVSPGGTVTLTCRSSTGAVTTSNYANWVQQKPGQAFRGLIGGTNKRAPGVPARFSGSLLGGKAALTLSGVQPEDEAIYFCALWYSNLWVFGCGTKLTVL
For B6, the Kd in the test with HuCD3E [9] was under 10 nM.

B7: ABP100s.10.5.5 (antibody, V domains shown)
VH: EVQLVESGGGLVQPGGSLKLSCAASGFTFNTYAMNWVRQAPGKCLEWVARIRSKYNNYATYYADSVKDRFTISRDDSKNTAYLQMNSLKTEDTAVYYCVRHGNFGNSYVSWFMYWGQGTLVTVSS
VL: QTVVTQEPSLTVSPGGTVTLTCRSSTGAVTTSNYANWVQQKPGQAFRGLIGGTNKRAPGVPARFSGSLLGGKAALTLSGVQPEDEAIYFCALWYSNLWVFGCGTKLTVL
In the test with HuCD3E [8], B7 yielded a Kd of over 100 nM.

B8: VH3 (SEQ ID NO: 18) + VL4 (SEQ ID NO: 20) (antibody, V domains shown)
VH: EVQLVESGGGLVQPGGSLKLSCAASGFTFNTYAMNWVRQAPGKGLEWVARIRSKYNNYATYYADSVKDRFTISRDDSKNTAYLQMNSLKTEDTAVYYCVRHGNFGNSYVSWFAYWGQGTLVTVSS
VL: QTVVTQEPSLTVSPGGTVTLTCRSSTGAVTTSNYANWVQQKPGQAFRGLIGGTNKRAPGVPARFSGSLLGGKAALTLSGVQPEDEAEYFCALWYSNLWVFGGGTKLEIK
notes: Humanized SP34 anti-CD3 variant; The sample heated at 42° C. is the same molecule and is marked under assay; also called VH3 + VL4
Take B8: the Kd with CynoCD3E [2] was determined as 1.9 nM; with HuCD3E [3], 1.5 nM; with CynoCD3E [4], 2.14 nM; with HuCD3E [5], 1.72 nM. In addition, the koff with CynoCD3E [2] stood at 0.00049 s⁻¹; in the test with HuCD3E [3], 0.000349 s⁻¹; in the test with CynoCD3E [4], 0.000501 s⁻¹; in the test with HuCD3E [5] it was 0.000331 s⁻¹. Besides, the kon with CynoCD3E [2] is 257000 M⁻¹ s⁻¹; in the test with HuCD3E [3], 232000 M⁻¹ s⁻¹; in the test with CynoCD3E [4], 234000 M⁻¹ s⁻¹; with HuCD3E [5], 192000 M⁻¹ s⁻¹.

B9: ABP100s.10.0.4 (antibody, V domains shown)
VH: EVQLVESGGGLVQPGGSLKLSCAASGFTFNTYAMNWVRQAPGKCLEWVARIRSKYNNYATYYWDSVKDRFTISRDDSKNTAYLQMNSLKTEDTAVYYCVRHGNFGNSYVSWFAYWGQGTLVTVSS
VL: QTVVTQEPSLTVSPGGTVTLTCRSSTGAVTTSNYANWVQQKPGQAFRGLIGGTNKRAPGVPARFSGSLLGGKAALTLSGVQPEDEAIYFCALWYSNLWVFGCGTKLTVL
Regarding B9, the Kd in the test with HuCD3E [6] is at least 10 nM; with HuCD3E [7] it was at most 100 nM.

B10: ABP100s.10.0.2 (antibody, V domains shown)
VH: EVQLVESGGGLVQPGGSLKLSCAASGFTFNTYAMNWVRQAPGKCLEWVARIRSKYNNYATYKADSVKDRFTISRDDSKNTAYLQMNSLKTEDTAVYYCVRHGNFGNSYVSWFAYWGQGTLVTVSS
VL: QTVVTQEPSLTVSPGGTVTLTCRSSTGAVTTSNYANWVQQKPGQAFRGLIGGTNKRAPGVPARFSGSLLGGKAALTLSGVQPEDEAIYFCALWYSNLWVFGCGTKLTVL
On to B10, for which the values for the Kd with HuCD3E [6] and in the test with HuCD3E [7] were at least 10 nM and at most 100 nM, respectively.

B11: ABP100s.10.6.5 (antibody, V domains shown)
VH: EVQLVESGGGLVQPGGSLKLSCAASGFTFNTYAMNWVRQAPGKCLEWVARIRSKYNNYATYYADSVKDRFTISRDDSKNTAYLQMNSLKTEDTAVYYCVRHGNFGNSYVSWFMYWGQGTLVTVSS
VL: QTVVTQEPSLTVSPGGTVTLTCRSSTGAVTTSNYANWVQQKPGQAFRGLIGGTNKRAPGVPARFSGSLLGGKAALTLSGVQPEDEAIYFCALWYSNLWVFGCGTKLTVL
In the test with HuCD3E [8], B11 had a Kd of at least 100 nM.

B12: ABP100s.10.4 (antibody, V domains shown)
VH: EVQLVESGGGLVQPGGSLKLSCAASGFTFNTYAMNWVRQAPGKCLEWVARIRSKYNNYATYYADSVKDRFTISRDDSKNTAYLQMNSLKTEDTAVYYCVRHGNFGNSYVSWFAYWGQGTLVTVSS
VL: QTVVTQEPSLTVSPGGTVTLTCRSSTGAVTTSNYANWVQQKPGQAFRGLIGGTNKRAPGVPARFSGSLLGGKAALTLSGVQPEDEAIYFCALWYSNLWVFGCGTKLTVL
In the test with HuCD3E [9], B12 gave a Kd of under 10 nM.

B13: ABP100s.10.5 (antibody, V domains shown)
VH: EVQLVESGGGLVQPGGSLKLSCAASGFTFNTYAMNWVRQAPGKCLEWVARIRSKYNNYATYYADSVKDRFTISRDDSKNTAYLQMNSLKTEDTAVYYCVRHGNFGNSYVSWFAYWGQGTLVTVSS
VL: QTVVTQEPSLTVSPGGTVTLTCRSSTGAVTTSNYANWVQQKPGQAFRGLIGGTNKRAPGVPARFSGSLLGGKAALTLSGVQPEDEAIYFCALWYSNLWVFGCGTKLTVL
In the case of B13, the Kd with HuCD3E [9] is under 10 nM.

B14: 32G4-V8-v5.6 (antibody, V domains shown)
VH: EVQLVESGGGLVQPGGSLKLSCAASGFTFNTYAMNWVRQAPGKGLEWVARIRSKYNNYATYYADSVKDRFTISRDDSKNTAYLQMNSLKTEDTAVYYCVRHGNFGNSYVSWFAYWGQGTLVTVSS
VL: QTVVTQEPSLTVSPGGTVTLTCRSSTGAVTTSNYANWVQQKPGQAFRGLIGGTNKRAPGVPARFSGSLLGGKAALTLSGVQPEDEAIYFCMLWYSNLWVFGGGTKLTVL
Regarding B14, the Kd with HuCD3E [1] is over 100 nM.

Usually Kd stands for the free concentration of one partner at which half of the binding sites on the other are occupied at equilibrium, for simple one-to-one binding. The koff is the first-order rate constant of dissociation. A word on the kon: it is the second-order rate constant of association. A lower kon goes with slow association.
